# B1: ANKRD40 (parent)
# chain: SLRENDFIEIELDRQELTYQELLR
# B2: PDLIM7 (parent)
# chain: AAGGVPGGGSNNGKTPVCHQCHKV
# Variants of: B1
# Test: protein stability index of a GFP-peptide fusion (GPS, HEK-293T) (PSI 1-6); higher = more stable
# Conditions: c terminus: a fixed tail appended
# 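Further: lentivirally expressed fusions sorted by FACS into six bins by GFP to DsRed ratio, PSI derived from sequencing read proportions per bin multiplied by bin number.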
row,Variant,protein stability index
1,R24S,2.92
2,R24T,3.06
3,R24F,2.64
4,R24D,3.17
5,R24L,3.09
6,R24E,3.88
7,R24Y,2.43
8,R24A,3.23
9,R24V,2.71
10,R24K,3.12
11,R24M,2.52
12,R24G,3.27
13,R24H,2.77
14,R24P,3.06
15,R24W,2.26
16,R24Q,3.04
17,R24C,2.72
18,R24I,2.35
19,R24N,3.49
20,E21T,2.09
21,E21Y,1.77

row,Variant,protein stability index
1,E21V,1.99
2,E21S,2.71
3,E21R,2.62
4,E21W,1.85
5,L22Y,2.9
6,L22F,3.14
7,L22Q,4.02
8,L22M,3.34
9,L22P,3.56
10,L22V,2.77
11,L22D,4.54
12,L22G,3.57
13,L22I,2.53
14,L22H,3.42
15,L22S,3.8
16,L22T,3.45
17,L22R,3.74
18,L22E,3.66
19,L22C,3.58
20,L22K,3.97
21,L22W,2.86

row,Variant,protein stability index
1,L22A,3.8
2,L22N,3.92
3,L23K,3.85
4,L23D,4.25
5,L23C,2.97
6,L23V,3.53
7,L23P,3.58
8,L23W,2.04
9,L23R,3.75
10,L23G,3.48
11,L23A,3.73
12,L23Q,3.94
13,L23F,2.54
14,L23T,3.59
15,L23S,4
16,L23N,4.05
17,L23E,3.99
18,L23Y,3.43
19,L23M,3.16
20,L23I,2.76
21,L23H,3.6

# Variants of: B2
# Test: as above
# Conditions: c terminus: a fixed tail appended
row,Variant,protein stability index
1,G8M,3.46
2,G8L,3.72
3,G8Q,3.87
4,G8P,3.8
5,G8T,4.16
6,G8C,3.12
7,G8Y,2.96
8,G8S,2.9
9,G8D,4.5
10,G8A,3.58
11,G8R,3.31
12,G8H,3.3
13,G8V,3.53
14,G8W,3.56
15,G8E,5.24
16,G8N,3.14
17,G8I,3.48
18,G8K,3.52
19,G8F,2.43
20,G7Q,3.93
21,G7D,4.3
22,G7V,3.53
23,G7K,4.09
24,G7M,2.06
25,G7F,2.9
26,G7Y,3.4

row,Variant,protein stability index
1,G7P,3.4
2,G7H,3.68
3,G7R,3.89
4,G7I,3.1
5,G7C,3.49
6,G7S,3.95
7,G7W,2.26
8,G7E,4.47
9,G7L,3.47
10,G7N,4.05
11,G7T,3.56
12,P6E,4.88
13,P6W,1.96
14,P6R,3.73
15,P6L,3.23
16,P6I,2.57
17,P6Y,3.73
18,P6V,3.04
19,P6Q,3.42
20,P6K,4.05
21,P6M,4.35
22,P6N,3.46
23,P6G,2.19
24,P6F,2.85
25,P6C,3.05
26,A1H,4.13

row,Variant,protein stability index
1,A1Y,1.95
2,A1M,3.5
3,A1S,2.44
4,A1L,3.76
5,A1I,3.52
6,A1E,4.24
7,A1W,3.22
8,A1G,3.52
9,A1N,3.03
10,A1V,3.93
11,A1R,2.36
12,A1K,3.36
13,A1F,2.45
14,A1D,4.34
15,A1C,3.35
16,A1T,2.73
17,A1P,3.33
18,A2P,2.15
19,A2D,3.81
20,A2H,3.63
21,A2T,3.08
22,A2R,3.33
23,A2F,3.86
24,A2W,3.88
25,A2G,3.43
26,A2L,3.53

row,Variant,protein stability index
1,A2N,4.08
2,A2M,3.78
3,A2S,3.84
4,A2Q,4.19
5,A2K,4.11
6,A2Y,3.72
7,A2E,4.76
8,A2V,3.97
9,A2C,2.73
10,A2I,3.49
11,G9C,2.13
12,G9I,3.48
13,G9E,4.04
14,G9F,2.39
15,G9D,4.5
16,G9H,3.21
17,G3K,3.87
18,G3C,3.41
19,G3H,4.17
20,G3F,3.31
21,G3T,3.3
22,G3I,2.02
23,G3N,3.14
24,G3S,3.42
25,G3D,4.08
26,G3Y,3.54

# From the supplement of paper PMC10567573
